The experiment concerns the target Ab42 oligomers (formed during the in vitro aggregation reaction of Ab42). Briefly: time-course indirect ELISA on samples of the Ab42 aggregation reaction. For orientation: An ELISA detects its analyte on a solid surface through an enzyme-linked reagent.

Experimental findings from WO2021032966A1 are described below.

Chain of Ab42 oligomers (formed during the in vitro aggregation reaction of Ab42) (peptide, as listed by the source): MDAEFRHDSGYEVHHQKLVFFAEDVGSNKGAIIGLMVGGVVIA

B1: DesAb-O (VHH)
VHH: EVQLVESGGGLVQPGGSLRLSCAASGFNIKDTYIGWVRRAPGKGEEWVASIYPTNGYTRYADSVKGRFTISADTSKNTAYLQMNSLRAEDTAVYYCAAGSESAFGRAEEEAAAWGQGTLVTVSS
B1 came in with a fold of ELISA absorbance at 1 hour of incubation over the initial time of aggregation of 3 fold.
